Laboratory results: patent US20050182242A1, “Global analysis of protein activities using proteome chips” (priority 2001, published 2005)

Target: T1, calmodulin (Homo sapiens, UniProt P0DP23)
T1 construct: purchased CalBiochem, USA
Test: Yeast proteome chip probed with biotinylated calmodulin
Assay type: binding
Details: biotinylated calmodulin in the presence of calcium
Excerpt: To test for protein-protein interactions, the yeast proteome was probed with calmodulin (11). Calmodulin is a highly conserved calcium-binding protein involved in many calcium-regulated cellular processes and has many known physical partners (Hook et al., 2001, Annu. Rev. Pharmacol. Toxicol. 41:471). The calmodulin probe was biotinylated, and bound probe was detected using Cy3-labeled streptavidin. As a control, the yeast proteome was probed with Cy3-labeled streptavidin alone.
Generally, protein-protein interactions can be assayed as follows. Blocked proteome chips are washed three to five times in PBS buffer, and the extra liquid on the glass surface is removed by tapping the slides vertically on a KIMWIPE™. 200 ∞l of biotinylated protein probe is added to the proteome chip and immediately covered by a hydrophobic plastic cover slip (GRACE BIO-LABS™, USA). After trapped air bubbles are removed, the chip is incubated in a humidity chamber at room temperature (RT) for one hour. To remove the cover slip, the chip is immersed into large volume of PBS buffer (>50 ml), and the slip should float away. The chip is then moved to a second PBS bath (>50 ml) and washed 3×5 min with shaking at RT. After removing extra liquid on the surface of the chip, at least 150 μl of Cy3- or Cy5-conjugated streptavidin (PIERCE™, USA; 1:2000 to 1:4000 dilution) is added to the surface and covered by a hydrophobic plastic cover slip (GRACE BIO-LABS™, USA). The chip is incubated for greater than 30 min in the dark at RT. The chip is then washed as described above. To completely remove the liquid on the chip, the chip is spun to dryness at 1500-2000 rpm for 5-10 min at RT.
• 1. S. Fields, Y. Kohara, D. J. Lockhart, Proc. Natl. Acad. Sci. 96, 8825 (1999); A. Goffeau et al., Science 274, 563 (1996). • 2 P. Ross-Macdonald et al., Nature 402, 413 (1999); J. L., DeRisi, V. R. Iyer, P. O. Brown, Science 278, 680 (1997); E. A. Winzeler et al., Science 285, 901 (1999). P. Uetz et al., Nature 403, 623 (2000); T. Ito et al., Proc. Natl. Acad. Sci. USA. 97, 1143 (2000) • 3 H. Zhu, M. Snyder, Curr. Opin. Chem. Biol. 5, 40 (2001). • 4 M. R. Martzen et al., Science 286, 1153 (1999). • 5 H. Zhu et al., Nat. Genet. 26, 283 (2000). • 6 G. MacBeath, S. L. Schreiber, Science 289, 1760 (2000). • 7 A. Caveman, J. Cell Sci. 113, 3543 (2000). • 8 P. Arenkov et al., Anal. Biochem 278, 123 (2000). • 9 D. A. Mitchell, T. K. Marshall, R. J. Deschenes, Yeast 9, 715 (1993). The expression vector pEGH was created by inserting an RGS-HisX6 epitope tag between the GST gene and the polycloning site of pEG(KG). The yeast ORFs were cloned using the strategy described previously (5), except every step was done in a 96-well format. Plasmid DNAs confirmed by DNA sequencing were reintroduced into both yeast (Y258) and E. coli (DH5a). […] 0.1 mM calcium was present in buffers in all subsequent steps. The chip was washed three times with PBS at RT. Cy3-conjugated streptavidin (Jackson IR, USA) (1:5000 dilution) was added to the chip and incubated for 30 min at RT. After extensive washing, the chip was spun dry and scanned using a microarray scanner; the data was subsequently acquired with the GENEPIX™ array densitometry software (Axon, USA). • 12 S. S. Hook, A. R. Means, Annu. Rev. […]

Row | Molecule | calmodulin binding
1 | CMK1: yeast calcium/calmodulin-dependent serine/threonine protein kinase, GST-HisX6 fusion (protein, left off: a dimerising Fc or GST, yeast calcium/calmodulin-dependent serine/threonine protein kinase, GST-HisX6 fusion) MDDKVSEKESSPKQTEEDSEGKMAHVQPASYVNKKKYVFGKTLGAGTFGVVRQAKNTETGEDVAVKILIKKALKGNKVQLEALYDELDILQRLHHPNIVAFKDWFESKDKFYIITQLAKGGELFDRILKKGKFTEEDAVRILVEILSAVKYMHSQNIVHRDLKPENLLYIDKSDESPLVVADFGIAKRLKSDEELLYKPAGSLGYVAPEVLTQDGHGKPCDIWSIGVITYTLLCGYSAFRAERVQDFLDECTTGEYPVKFHRPYWDSVSNKAKQFILKALNLDPSKRPTAAELLEDPWIICTELKTHNLLPGLKEGLDARQKFRNSVERVRLNMKIQKLRDLYLEQTESDSDFDEGSQANGSVPPLKATDTSQLSKKLSEEEQSKLKSELTSKAFAQLVNTVLAEKEKFLNINRVCSSDSDLPGSDIKSLDEAKEKPEGKDTKTEE | identified
2 | MY04: yeast class V myosin heavy chain, GST-HisX6 fusion (protein, UniProt P32492 1-1471, looked up, GST-HisX6 tag, yeast class V myosin heavy chain, GST-HisX6 fusion) Myosin-4: MSFEVGTKCWYPHKEQGWIGGEVTKNDFFEGTFHLELKLEDGETVSIETNSFENDDDHPTLPVLRNPPILESTDDLTTLSYLNEPAVLHAIKKRYMNGQIYTYSGIVLIAANPFDKVDHLYSREMIQNYSSKRKDELEPHLFAIAEEAYRFMVHEKANQTVVVSGESGAGKTVSAKYIMRYFASVQESNNREGEVEMSQIESQILATNPIMEAFGNAKTTRNDNSSRFGKYLQILFDENTTIRGSKIRTYLLEKSRLVYQPETERNYHIFYQILEGLPEPVKQELHLSSPKDYHYTNQGGQPNIAGIDEAREYKITTDALSLVGINHETQLGIFKILAGLLHIGNIEMKMTRNDASLSSEEQNLQIACELLGIDPFNFAKWIVKKQIVTRSEKIVTNLNYNQALIARDSVAKFIYSTLFDWLVDNINKTLYDPELDQQDHVFSFIGILDIYGFEHFEKNSFEQFCINYANEKLQQEFNQHVFKLEQEEYVKEEIEWSFIEFSDNQPCIDLIENKLGILSLLDEESRLPSGSDESWASKLYSAFNKPPSNEVFSKPRFGQTKFIVSHYAVDVEYEVEGFIEKNRDSVSLGHLDVFKATTNPIFKQILDNRELRSDDAPEEQNTEKKIMIPARLSQKKPTLGSMFKKSLGELMAIINSTNVHYIRCIKPNSEKKPWEFDNLMVLSQLRACGVLETIRISCAGFPSRWTFDEFVQRYFLLTDYSLWSGILYNPDLPKEAIVNFCQSILDATISDSAKYQIGNTKIFFKAGMLAFLEKLRTNKMNEICIIIQKKIRARYYRLQYLQTMESIKKCQSQIRSLLVRTRVDHELKTRAAILLQTNIRALWKREYYRAAIGQIIKLQCTCKRKLILDSVNRKFMLMAAVIIQSYIRSYGHKTDYRTLKRSSILVQSAMRMQLARRRYIVLQKEVEERNIRASYGIGLLEEAIEFKNSFILNLEMLNDSYTRLTQLLQGDLSNIPSKQRQEYETIVNGYNDKISKLKTLQVEIMNTLNKKNALKERKKKQSSLIQSHMQSLAAIKGNKPSRLSDEVKSMKQELAFIENVIAQDFTTTYSANKNDKVKGLGIAGQQVKPKLVNVIRRESGNPDLLELLMDLNCYTLEVTEGYLKKVNVTEVNGDNVLGPIHVITTVVSSLVRNGLLIQSSKFISKVLLTVESIVMSLPKDETMLGGIFWLSNLSRLPAFAANQKTLYEANGGDEKDKLTLIYLNDLENETLKVFDKIYSTWLVKFMKHASAHIEIFDMVLNEKLFKNSGDEKFAKLFTFLNEFDAVLCKFQVVDSMHTKIFNDTLKYLNVMLFNDLITKCPALNWKYGYEVDRNIERLVSWFEPRIEDVRPNLIQIIQAVKILQLKISNLNEFKLLFDFWYALNPAQIQAILLKYKPANKGEAGVPNEILNYLANVIKRENLSLPGKMEIMLSAQFDSAKNHLRYDTSAITQNSNTEGLATVSKIIKLDRK | identified
